Test results published in article PMC9892492, “Bioconversion of 4-hydroxyestradiol by extradiol ring-cleavage dioxygenases from Novosphingobium sp. PP1Y” (Scientific Reports, 2023).

B1: PP00193 (Novosphingobium sp. PP1Y) (protein)
chain: MALTGVLRPGYVQLRVLDLDEAIQHYRDRIGLNLVSVEDGRAFFQAFDEFDRHSIILREADSAGLDRMAFKVAKDADLDHFAERLLDMGVHVDIIPAGEDPGVGRKIRFNTPTAHVFDLYAEMELSETGPAVRNPDVWIAEPRGMRATRFDHCALNGVDISASAKIFVEALDFSVTEELVDEASGTRLGIFLSCSNKAHDVAFLGYPEDGRIHHTSFNLESWHDVGHAADIISRYDISLDIGPTRHGITRGQTIYFFDPSGNRNETFSGGYTYYPDNPRRMWQAENAGKAIFYYEKALNDRFMTVNT
notes: full ORF in pET22b(+), E. coli BL21(DE3); Q-Sepharose batch purified; no tag mentioned
B2: PP26077 (Novosphingobium sp. PP1Y) (protein)
chain: MGIKALGYVVVETAKPEEWNTFLTQFAGAMRAPDAADGAALYRVDDRVFRFRIEAGTREWFVAAGYELTDRAALDALAVRIGDAARPVEWADANEAAGRGAEAMFRTSDPAGNGLEFYCGDARSDKPFVSPIGVPEFLTGDLGMGHAVFSAPDFEETIAFHRDVVGFHETDMPRFHLMGPDAPSMGFAFLHADNGRHHSIAFGEGPVPPSGAVHIMLELPDLIEVGKAHDRMKRFGYPESATLGRHVNDETTGFYVQTPSGFDLEIGCDSLIIDPASWEVTKHEGISVWGHEWAWQKALKEQQEQEKGA
notes: as for B1
B3: PP00124 (Novosphingobium sp. PP1Y) (protein)
chain: MVAVTELGYLGLTVTDLDAWRSYAAEVAGMEIVDEGEGDCLYLRMDQWHHRIALHAGDTDDLAYLGWRVAGPVEFDAMVAQLAAAGIAVEVASEAEARERRVLGLAKLADPGGNPTEIFYAPQVDTHKPFHPGRPMFGRFLTGSEGIGHCILRQDDVAAAAAFYGLLGLRGSVEYHLQLPNGMVAQPYFMHCNERQHSIAFGLGPMEKRINHLMFEYTDLDDLGLAHDIVRARKIDVALQLGKHANDQALTFYCANPSGWLWEFGWGARKAPSQQEYYTRDIFGHGNEAAGYGMDIPLG
notes: as for B1

Legend:
Test in all cases: purified protein
Conditions in all cases: 50 mM Tris/HCl pH 7.5, 25 °C, O2 co-substrate, Fe(II) enzyme
[1] = test system: T1, Cc1cccc(O)c1O; type: biochemical, Novosphingobium sp. PP1Y
T1 construct: full ORF in pET22b(+), E. coli BL21(DE3); Q Sepharose column purified, contaminated; no tag mentioned

[2] = test system: Oc1cccc(-c2ccccc2)c1O
[3] = test system: [H][C@@]12CCc3c(ccc(O)c3O)[C@@]1([H])CC[C@]1(C)[C@@H](O)CC[C@@]21[H]
[4] = substrate: Oc1cccc(-c2ccccc2)c1O; remark: listed apart in the source
[5] = substrate: Cc1ccc(O)c(O)c1; type: biochemical, Novosphingobium sp. PP1Y
[6] = substrate: Cc1cccc(O)c1O; type: biochemical, Novosphingobium sp. PP1Y
[7] = substrate: Oc1ccccc1O; type: biochemical, Novosphingobium sp. PP1Y
[8] = substrate: [H][C@@]12CCc3c(ccc(O)c3O)[C@@]1([H])CC[C@]1(C)[C@@H](O)CC[C@@]21[H]; type: biochemical, Novosphingobium sp. PP1Y

Molecule	Km [4]	kcat [4]	kcat/Km [4]	Km [5]	kcat [5]	kcat/Km [5]	Km [6]	kcat [6]	kcat/Km [6]	Km [7]	kcat [7]	kcat/Km [7]	other results
PP28735 (Novosphingobium sp. PP1Y)	–	–	–	–	–	–	–	–	–	–	–	–	Km [1]: 451 µM; kcat [1]: 1.47 s⁻¹; kcat/Km [1]: 3300 M⁻¹ s⁻¹; Km [2]: 67.90 µM; kcat [2]: 18.6 s⁻¹; kcat/Km [2]: 270000 M⁻¹ s⁻¹; Km [3]: 1.90 µM; kcat [3]: 38.2 s⁻¹; kcat/Km [3]: 2.01e+07 M⁻¹ s⁻¹
B1	3.15 µM	30.5 s⁻¹	9.7e+06 M⁻¹ s⁻¹	1.89 µM	120 s⁻¹	6.35e+07 M⁻¹ s⁻¹	3.17 µM	225 s⁻¹	7.09e+07 M⁻¹ s⁻¹	1.69 µM	194 s⁻¹	1.15e+08 M⁻¹ s⁻¹	–
B2	35.20 µM	8.9 s⁻¹	250000 M⁻¹ s⁻¹	–	–	–	2600 µM	3 s⁻¹	1200 M⁻¹ s⁻¹	–	–	–	–
B3	3.70 µM	13.8 s⁻¹	3.72e+06 M⁻¹ s⁻¹	1.80 µM	2.97 s⁻¹	1.65e+06 M⁻¹ s⁻¹	2.90 µM	10.2 s⁻¹	3.53e+06 M⁻¹ s⁻¹	38.20 µM	5.44 s⁻¹	140000 M⁻¹ s⁻¹	Km [8]: 0.75 µM; kcat [8]: 8.6 s⁻¹; kcat/Km [8]: 1.14e+07 M⁻¹ s⁻¹
